Blank lines part the entries; values can stand above or below the binder they belong to.
How the values were obtained:
human FcγRIIA on cells [1] = target: T1, human FcγRIIA on cells (human, UniProt P12318 34-317); assay: binding to FcγRIIA-transfected CHO-k1 cells
T1 construct: whole, on cells; also called hFcγRIIA; FcγRIIA^+ve CHO
T1 sequence (looked up): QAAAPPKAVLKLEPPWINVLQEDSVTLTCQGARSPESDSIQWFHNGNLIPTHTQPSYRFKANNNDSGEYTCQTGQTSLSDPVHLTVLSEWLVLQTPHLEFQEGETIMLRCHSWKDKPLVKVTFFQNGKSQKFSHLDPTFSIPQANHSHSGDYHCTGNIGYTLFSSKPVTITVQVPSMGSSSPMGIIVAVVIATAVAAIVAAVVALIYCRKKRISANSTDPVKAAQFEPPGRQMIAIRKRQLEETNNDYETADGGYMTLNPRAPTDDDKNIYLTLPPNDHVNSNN

human FcγRIIB on cells = target: T2, human FcγRIIB on cells (human, UniProt P31994 43-310); assay: flow cytometry, mAb at 0.1, 1 and 10 µg/ml on B cells, MFI
T2 construct: whole, on cells; also called hFcγRIIB; CD32B
T2 sequence (looked up): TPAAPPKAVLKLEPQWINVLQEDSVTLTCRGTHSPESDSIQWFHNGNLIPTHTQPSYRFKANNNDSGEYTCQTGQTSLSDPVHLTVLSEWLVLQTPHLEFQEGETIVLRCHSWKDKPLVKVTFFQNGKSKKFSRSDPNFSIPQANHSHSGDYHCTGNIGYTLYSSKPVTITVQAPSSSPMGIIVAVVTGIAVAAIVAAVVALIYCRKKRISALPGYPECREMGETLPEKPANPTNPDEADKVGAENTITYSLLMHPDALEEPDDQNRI

mouse FcγRIIB = target: T3, mouse FcγRIIB (mouse, UniProt P08101 30-330); assay: IHC on frozen tissue sections
T3 construct: whole, on cells; also called mFcγRII; FcγRIIB in other species
T3 sequence (looked up): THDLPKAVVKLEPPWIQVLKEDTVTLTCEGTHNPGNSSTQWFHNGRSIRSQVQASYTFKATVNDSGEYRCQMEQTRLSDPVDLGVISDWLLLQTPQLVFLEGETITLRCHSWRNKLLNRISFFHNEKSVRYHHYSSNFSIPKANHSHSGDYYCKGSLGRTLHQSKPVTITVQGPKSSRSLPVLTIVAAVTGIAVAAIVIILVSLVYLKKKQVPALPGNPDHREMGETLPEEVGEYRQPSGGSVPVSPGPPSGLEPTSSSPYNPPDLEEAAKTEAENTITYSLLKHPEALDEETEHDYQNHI

rat FcγRIIB = target: T4, rat FcγRIIB (rat, UniProt A0A0G2K9R6 42-295); assay: IHC on frozen tissue sections
T4 construct: also called FcγRIIB in other species
T4 sequence: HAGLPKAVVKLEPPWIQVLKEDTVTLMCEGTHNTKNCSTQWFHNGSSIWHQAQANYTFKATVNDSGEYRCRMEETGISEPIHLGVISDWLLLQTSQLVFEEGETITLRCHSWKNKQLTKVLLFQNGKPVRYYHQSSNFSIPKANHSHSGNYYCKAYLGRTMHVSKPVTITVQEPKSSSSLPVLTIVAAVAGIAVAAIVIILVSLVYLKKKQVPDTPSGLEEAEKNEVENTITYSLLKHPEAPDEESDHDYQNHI

[2] = target: T5, cynomolgus monkey FcγRIIB (cynomolgus monkey, UniProt A0A140HDP4 43-312); assay: IHC on frozen tissue sections
T5 construct: whole, on cells; also called FcγRIIB in other species
T5 sequence: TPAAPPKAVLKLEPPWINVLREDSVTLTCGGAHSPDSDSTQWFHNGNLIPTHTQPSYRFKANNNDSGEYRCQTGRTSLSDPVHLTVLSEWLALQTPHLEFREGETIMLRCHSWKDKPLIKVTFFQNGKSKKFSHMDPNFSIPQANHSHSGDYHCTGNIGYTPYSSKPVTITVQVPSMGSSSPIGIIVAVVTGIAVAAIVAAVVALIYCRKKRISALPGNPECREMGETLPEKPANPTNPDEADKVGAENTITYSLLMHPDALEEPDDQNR

[3] = target: T6, Soluble hFcγRIIB (R & D Systems) (human, UniProt P31994 46-217); assay: SPR, mAb immobilised, soluble hFcγRIIB injected
T6 construct: Bought reagent; also called hFcγRIIB fusion protein
T6 sequence (looked up): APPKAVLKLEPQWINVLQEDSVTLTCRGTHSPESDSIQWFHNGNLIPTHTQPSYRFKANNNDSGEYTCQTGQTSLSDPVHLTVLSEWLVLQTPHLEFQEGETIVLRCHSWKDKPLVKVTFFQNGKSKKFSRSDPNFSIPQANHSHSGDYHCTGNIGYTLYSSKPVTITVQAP
Method: (§1) A BIAcore T100 analyzer (GE Healthcare, UK) was used to determine the binding affinity of the hFcγRIIB mAb, as described elsewhere.²⁵ mAb were immobilized onto a CM5 sensorchip (GE Healthcare, UK), using standard amine coupling according to the manufacturer's instructions. Soluble hFcγRIIB (0.16-100 nM; R & D Systems, UK) was injected for 5 minutes and dissociation monitored for 10 minutes. Background binding to the control flow cell was monitored and subtracted automatically. The KD values were calculated from the 1:1 binding model using the BIAcore T100 Evaluation software.

[4] = target: T6, Soluble hFcγRIIB (R & D Systems); assay: SPR (Biacore T100), mAb immobilised on CM5, soluble hFcγRIIB injected, 1:1 model; column headed KA (1/MS)
Method: as §1

[5] = target: T6, Soluble hFcγRIIB (R & D Systems); assay: SPR (Biacore T100), mAb immobilised on CM5, soluble hFcγRIIB injected, 1:1 model
Method: as §1

[6] = target: T6, Soluble hFcγRIIB (R & D Systems); assay: SPR, mAb immobilised, soluble hFcγRIIB injected; column headed KA (1/MS)
Method: as §1

[7] = target: T6, Soluble hFcγRIIB (R & D Systems); assay: SPR (Biacore T100), mAb immobilised on CM5, soluble hFcγRIIB injected, 1:1 model; column headed KD (1/s)
Method: as §1

[8] = target: T6, Soluble hFcγRIIB (R & D Systems); assay: SPR, mAb immobilised, soluble hFcγRIIB injected; column headed KD (1/s)
Method: as §1

human FcγRIIA on cells [9] = target: T1, human FcγRIIA on cells; assay: flow cytometry on human PBMC populations, MFI; monocytes and neutrophils read as hFcγRIIA-bearing as in the legend

binding result (human FcγRIIA on cells [1]): no binding
B1: 6G03 (antibody, human IgG1, V domains shown)
VH: EVQLLESGGGLVQPGGSLRLSCAASGFTFGSYGMHWVRQAPGKGLEWVSGISWDSAIIDYAGSVKGRFTISRDNSKNTLYLQMNSLRAEDTAVYYCAKDEAAAGAFDIWGQGTLVTVSS
VL: QSVLTQPPSASGTPGQRVTISCTGSSSNIGAGYDVHWYQQLPGTAPKLLIYGNTDRPSGVPDRFSGSKSGTSASLAISGLRSEDEADYYCAAWDDSLSGPVVFGGGTKLTVLG
notes: hFcγRIIB mAb, human IgG1 (WT); Only VH/VL tied to the clone; also called Antibody clone: 6G03

binding result (human FcγRIIB on cells): no binding (tested: 10 µg/ml)
B2: 1C04 (antibody, human IgG1, V domains shown)
VH: EVQLLESGGGLVQPGGSLRLSCAASGFTFSSYAMSWVRQAPGKGLEWVSSISDSGAGRYYADSVEGRFTISRDNSKNTLYLQMNSLRAEDTAVYYCARTHDSGELLDAFDIWGQGTLVTVSS
VL: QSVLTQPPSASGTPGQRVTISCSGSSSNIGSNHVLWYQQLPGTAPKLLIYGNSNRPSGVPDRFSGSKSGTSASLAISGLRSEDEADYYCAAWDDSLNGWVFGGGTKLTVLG
notes: Only VH/VL tied to the clone; also called Antibody clone: 1C04

binding result (mouse FcγRIIB): no binding
binding result (rat FcγRIIB): no binding
binding result [2]: no binding
Kd [3]: 23.9 nM
kon [4]: 913000 M⁻¹ s⁻¹
Kd [5]: 23.9 nM
kon [6]: 913000 M⁻¹ s⁻¹
koff [7]: 0.0185 s⁻¹
koff [8]: 0.0185 s⁻¹
B3: 7C07 (antibody, human IgG1, V domains shown)
VH: EVQLLESGGGLVQPGGSLRLSCAASGFTFSSYGMHWVRQAPGKGLEWVAVISYDGSNKYYADSVKGRFTISRDNSQNTLYLQMNSLRAEDTAVYYCAREFGYIILDYWGQGTLVTVSS
VL: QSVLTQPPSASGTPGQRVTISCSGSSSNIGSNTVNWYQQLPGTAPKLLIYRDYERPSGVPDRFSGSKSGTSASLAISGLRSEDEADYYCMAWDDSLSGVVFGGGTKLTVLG
notes: Antagonistic hFcγRIIB mAb, human IgG1 (WT); Only VH/VL tied to the clone; also called Antibody clone: 7C07

binding result (human FcγRIIA on cells [1]): no binding
B4: 6C12 (antibody, human IgG1, V domains shown)
VH: EVQLLESGGGLVQPGGSLRLSCAASGFTFSSYGMHWVRQAPGKGLEWVAVISYDGSNKYYADSVKGRFTISRDNSKNTLYLQMNSLRAEDTAVYYCARERRDAFDIWGQGTLVTVSS
VL: QSVLTQPPSASGTPGQRVTISCTGSSSNIGAGYDVHWYQQLPGTAPKLLIYSDNQRPSGVPDRFSGSKSGTSASLAISGLRSEDEADYYCATWDSDTPVFGGGTKLTVLG
notes: hFcγRIIB mAb, human IgG1 (WT); Only VH/VL tied to the clone; also called Antibody clone: 6C12

binding result (human FcγRIIA on cells [1]): no binding
B5: 4B02 (antibody, human IgG1, V domains shown)
VH: EVQLLESGGGLVQPGGSLRLSCAASGFTFSNHGMHWVRQAPGKGLEWVAVISYDGTNKYYADSVRGRFTISRDNSKNTLYLQMNSLRAEDTAVYYCARETWDAFDVWGQGTLVTVSS
VL: QSVLTQPPSASGTPGQRVTISCSGSSSNIGSNNANWYQQLPGTAPKLLIYDNNKRPSGVPDRFSGSKSGTSASLAISGLRSEDEADYYCQAWDSSTVVFGGGTKLTVLG
notes: hFcγRIIB mAb, human IgG1 (WT); Only VH/VL tied to the clone; also called Antibody clone: 4B02

binding result (human FcγRIIA on cells [1]): no binding
B6: 6H08 (antibody, human IgG1, V domains shown)
VH: EVQLLESGGGLVQPGGSLRLSCAASGFTFNNYGMHWVRQAPGKGLEWVAVISYDGSNKYYADSVKGRFTISKDNSKNTLYLQMNSLRAEDTAVYYCAREYKDAFDIWGQGTLVTVSS
VL: QSVLTQPPSASGTPGQRVTISCTGSSSNIGSNTVNWYQQLPGTAPKLLIYDNNKRPSGVPDRFSGSKSGTSASLAISGLRSEDEADYYCQAWGTGIRVFGGGTKLTVLG
notes: hFcγRIIB mAb, human IgG1 (WT); Only VH/VL tied to the clone; also called Antibody clone: 6H08

binding result (human FcγRIIA on cells [9]): binds
B7: 6A09 (antibody, human IgG1, V domains shown)
VH: EVQLLESGGGLVQPGGSLRLSCAASGFTFSSYGMHWVRQAPGKGLEWVAVTSYDGNTKYYANSVKGRFTISRDNSKNTLYLQMNSLRAEDTAVYYCAREDCGGDCFDYWGQGTLVTVSS
VL: QSVLTQPPSASGTPGQRVTISCTGSSSNIGAGYDVHWYQQLPGTAPKLLIYGNSNRPSGVPDRFSGSKSGTSASLAISGLRSEDEADYYCAAWDDSLNEGVFGGGTKLTVLG
notes: hFcγRIIB mAb said to be likely dual-specific for hFcγRIIA and B; human IgG1 (WT); Only VH/VL tied to the clone; also called Antibody clone: 6A09

binding result (human FcγRIIA on cells [1]): no binding
B8: 5E12 (antibody, human IgG1, V domains shown)
VH: EVQLLESGGGLVQPGGSLRLSCAASGFTFSSYGMHWVRQAPGKGLEWVAVISYDGINKDYADSMKGRFTISRDNSKNTLYLQMNSLRAEDTAVYYCARERKDAFDIWGQGTLVTVSS
VL: QSVLTQPPSASGTPGQRVTISCTGSSSNIGAGYDVHWYQQLPGTAPKLLIYSNNQRPSGVPDRFSGSKSGTSASLAISGLRSEDEADYYCATWDDSLNGLVFGGGTKLTVLG
notes: hFcγRIIB mAb, human IgG1 (WT); Only VH/VL tied to the clone; also called Antibody clone: 5E12

binding result (human FcγRIIB on cells): no binding (tested: 10 µg/ml)
B9: 1E05 (antibody, human IgG1, V domains shown)
VH: EVQLLESGGGLVQPGGSLRLSCAASGFTFSTYAMNWVRQVPGKGLEWVAVISYDGSNKNYVDSVKGRFTISRDNSKNTLYLQMNSLRAEDTAVYYCARNFDNSGYAIPDAFDIWGQGTLVTVSS
VL: QSVLTQPPSASGTPGQRVTISCTGSSSNIGAGYDVHWYQQLPGTAPKLLIYDNNSRPSGVPDRFSGSKSGTSASLAISGLRSEDEADYYCAAWDDSLGGPVFGGGTKLTVLG
notes: Only VH/VL tied to the clone; also called Antibody clone: 1E05

binding result (human FcγRIIA on cells [1]): no binding
B10: 6C11 (antibody, human IgG1, V domains shown)
VH: EVQLLESGGGLVQPGGSLRLSCAASGFTFDDYGMSWVRQAPGKGLEWVSAISGSGSSTYYADSVKGRFTISRDNSKNTLYLQMNSLRAEDTAVYYCAGGDIDYFDYWGQGTLVTVSS
VL: QSVLTQPPSASGTPGQRVTISCTGSSSNFGAGYDVHWYQQLPGTAPKLLIYENNKRPSGVPDRFSGSKSGTSASLAISGLRSEDEADYYCAAWDDSLNGPVFGGGTKLTVLG
notes: hFcγRIIB mAb, human IgG1 (WT); Only VH/VL tied to the clone; also called Antibody clone: 6C11

binding result (human FcγRIIA on cells [1]): no binding
kon [4]: 472000 M⁻¹ s⁻¹
Kd [5]: 713 nM
koff [7]: 0.337 s⁻¹
B11: 6G08 (antibody, human IgG1, V domains shown)
VH: EVQLLESGGGLVQPGGSLRLSCAASGFTLSSYGISWVRQAPGKGLEWVSGISGSGGNTYYADSVKGRFTISRDNSKNTLYLQMNSLRAEDTAVYYCASSVGAYANDAFDIWGQGTLVTVSS
VL: QSVLTQPPSASGTPGQRVTISCTGSSSNIGAGYDVHWYQQLPGTAPKLLIYGDTNRPSGVPDRFSGSKSGTSASLAISGLRSEDEADYYCAAWDDSLNGPVFGGGTKLTVLG
notes: hFcγRIIB mAb (agonistic), human IgG1 (WT); Only VH/VL tied to the clone; also called Antibody clone: 6G08

binding result (human FcγRIIB on cells): no binding (tested: 10 µg/ml)
B12: 2A09 (antibody, human IgG1, V domains shown)
VH: EVQLLESGGGLVQPGGSLRLSCAASGFTFSNAWMSWVRQAPGKGLEWVAYISRDADITHYPASVKGRFTISRDNSKNTLYLQMNSLRAEDTAVYYCTTGFDYAGDDAFDIWGQGTLVTVSS
VL: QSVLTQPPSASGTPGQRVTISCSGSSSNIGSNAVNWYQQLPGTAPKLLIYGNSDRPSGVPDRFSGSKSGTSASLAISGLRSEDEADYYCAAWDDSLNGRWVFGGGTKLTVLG
notes: Only VH/VL tied to the clone; also called Antibody clone: 2A09
